Results: patent US20110059504A1 (GENERAL HOSPITAL, published 2011)
Where a chain is given by its changes, count along the chain named. Names and notes keep the numbering of the source.

T1: human myostatin (human, UniProt O14793 267-375, biotinylated in selections and radioactive assays (site not stated))
T1 construct: Phage ELISA used both unbiotinylated and biotinylated myostatin; also called biotinylated human myostatin; myostatin-biotin
T1 sequence (looked up): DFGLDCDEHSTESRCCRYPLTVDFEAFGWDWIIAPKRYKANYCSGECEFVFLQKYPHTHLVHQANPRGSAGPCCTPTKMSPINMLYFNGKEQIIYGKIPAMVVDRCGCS

B1: 39633-C1 (designed binder)
chain: MTIPEIIIKVRGTQVVGSDMTVIVEFTNPFKETLRSVWVHLDGPGVTRPMKKMFREIPPKTTVQWEEVVRPWVSGHRKLIASMRTQYLIHLYGELDVQIQRRDYKDDDDK
notes: group M1-A50; V91L; also called M17 (clone ID)
B2: 39633-G5 (designed binder)
chain: B1 chain with R55S, P58R, K60N, T61S
notes: group M1-A50; V91L
B3: 39885-A1 (designed binder)
chain: MTIPEIIIKVRGTQVVGSDMTVIVEFTNPLKETLRNVWVHLDGPGVTRPMKKMFPAIPMNHKVQWEEVVRPWVSGHRKLIASMPQLFHIHVYGELDVQIQRRDYKDDDDK
notes: group M1-A; also called M1-1 (clone ID)
B4: 39633-A1 (designed binder)
chain: B1 chain with K60N, R84P, Q86H, Y87H, I89L, L91V
notes: group M4-A50
B5: 39633-D2 (designed binder)
chain: MTIPEIIIKVRGTQVVGSDMTVIVEFTNLMKETLRNVWVHLDGPGVTRPMKKMFSEIRPNSTVQWEEVVRPWVSGHRKLIASMPSLLHLHVYGELDVQIQRRDYKDDDDK
notes: group M2-A50
B6: 39633-D3 (V39M) (designed binder)
chain: B5 chain with T27S, L29P, M30F, V39M
notes: group M2-A50; V39M
B7: 39633-E4 (designed binder)
chain: B5 chain with T27S, L29P, M30F, N60D
notes: group M2-A50; also called M019 (clone ID)
B8: 39633-H6 (M50V) (designed binder)
chain: B5 chain with L29P, M30F, N36S, M50V, S55R, R58P, N60K, S61T
notes: group M2-A50; M50V
B9: 39885-B5 (F26V) (designed binder)
chain: B3 chain with F26V
notes: group M1-A; F26V; also called M2-1 (clone ID)
B10: 39885-C1 (designed binder)
chain: B3 chain with P84L, Q85N, L86H, H88Y, I89K
notes: group M2-A
B11: 39885-C7 (designed binder)
chain: B3 chain with P55R
notes: group M1-A; also called M3-1 (clone ID)
B12: 39885-C11 (designed binder)
chain: B3 chain with P84I, Q85N, L86Y, H88Y, I89K
notes: group M2-A
B13: 39885-D8 (K9R) (designed binder)
chain: B3 chain with K9R, N60D
notes: group M1-A; K9R; also called M5-2 (clone ID)
B14: 39885-D11 (designed binder)
chain: B3 chain with P84I, Q85N, L86H, H88Y, I89K
notes: group M2-A
B15: 39885-F7 (designed binder)
chain: B3 chain with A56T, Q85H
notes: group M1-A
B16: 39885-F8 (designed binder)
chain: B3 chain with I89L
notes: group M1-A; also called M7-L (clone ID)
B17: 39885-F10 (S82C) (designed binder)
chain: B3 chain with S82C
notes: group M1-A; S82C
B18: 39885-G5 (designed binder)
chain: B3 chain with M59Y, N60L, H61S, K62Y, F87H, I89L
notes: group M1-A; also called M8-L (clone ID)
B19: 39885-G8 (designed binder)
chain: B3 chain with A56T
notes: group M1-A; also called M10-3 (clone ID)
B20: 39885-H9 (designed binder)
chain: B3 chain with P84I, Q85N, L86Y, H88Y, I89N
notes: group M2-A
B21: 39888-A11 (D42N) (designed binder)
chain: B3 chain with D42N
notes: group M1-A; D42N; also called M14-1 (clone ID); 39888-All(D42N)
B22: 39888-B7 (designed binder)
chain: B3 chain with P84N, Q85S, L86S, F87S, H88N, I89Q
notes: group M3-A
B23: 39888-G5 (S82I) (designed binder)
chain: B3 chain with S82I
notes: group M1-A; S82I
B24: 39908-G4 (designed binder)
chain: B5 chain with T27S, L29P, M30F
notes: group M2-A50; also called M7 (clone ID)
B25: 39908-G12 (designed binder)
chain: B5 chain with L29P, M30F, N36S
notes: group M2-A50; also called M10 (clone ID)
B26: 39908-H10 (designed binder)
chain: B5 chain with L29P, M30F, N36S, S55R, R58P, N60K, S61T
notes: group M2-A50; also called M4 (clone ID)
B27: 39973-C10 (designed binder)
chain: B3 chain with A56T, P58S, M59R, N60F, H61K, K62R, F87Q, I89L
notes: group M1-A
B28: 39973-F10 (designed binder)
chain: B3 chain with P55A, A56T, M59P, N60Y, H61L, K62P, F87I, I89L
notes: group M1-A
B29: 39973-D2 (designed binder)
chain: MTIPEIIIKVRGTQVVGSDMTVIVEFYFSPGARLATVWVHLDGPGVTRPMKKMFHSIYVPFWVQWEEVVRPWVSGHRKLIASMTTTVQGHVYGELDVQIQRRDYKDDDDK
notes: group M3-A
B30: 39973-B12 (designed binder)
chain: MTIPEIIIKVRGTQVVGSDMTVIVEFKHDRYRYLQQVWVHLDGPGVTRPMKKMFKLIIFSYPVQWEEVVRPWVSGHRKLIASMRFMCPSHVYGELDVQIQRRDYKDDDDK
notes: group M3-A
B31: 39973-G3 (designed binder)
chain: MTIPEIIIKVRGTQVVGSDMTVIVEFTNPLKETLRNVWVHLDGPGVTRPMKKMFEQIRESEYVQWEEVVRPWVSGHRKLIASMLTETRPHVYGELDVQIQRRDYKDDDDK
notes: group M3-A
B32: 45927-A11 (designed binder)
chain: MTIPEIIIKVRGTQVVGSDMTVIVEFTNPLKETLRNVWVHLDGPGVTRPMKKMFQKIPGCSTVQWEEVVRPWVSGHRKLIASMSMLGLPFSLRFIPVYGELDVQIQRRDYKDDDDK
notes: group M1-Aext
B33: 45927-B7 (M50T) (designed binder)
chain: B32 chain with M50T, Q55L
notes: group M1-Aext; M50T

Each binder was assayed against T1, human myostatin (assay: radioactive equilibrium binding assay).
Experimental: Affinities of selected F13β2 binders to biotinylated myostatin were determined in radioactive equilibrium binding assay (FIGS. 11A and 11B; Table 3). ³⁵S-labeled binder proteins from selection pools and single clones were produced in vitro in a rabbit reticulocyte lysate translation kit (Ambion) and purified on M2-agarose (Sigma). Varying concentrations of biotinylated human myostatin (0-100 nM) or other proteins (protein 1: 100 nM; peptide 1: 250 nM; protein 2: 50 nM) were incubated with a constant concentration of the purified binder protein (1 or 2 nM) at 30° C. for 30 min in buffer B (1×PBS, 0.02% Triton X-100 [pH 7.4]). The receptor-binder complexes were captured by using 25 μl of M280 or Protein A (Dynal) (protein 2) magnetic beads for 10 min at room temperature on a Kingfisher instrument (Thermo Fisher Scientific). The beads were washed five times with 100 μl buffer B, and the amount of ³⁵S-methionine remained on the beads was measured by scintillation counting. Data were analyzed by using the GraphPad Prism software (GraphPad Software, Inc., San Diego, Calif.), fitted with a one-site, nonlinear binding equation. For inhibition assay the binding of ³⁵S-labeled proteins to 20 or 25 nM of biotinylated human myostatin was performed in the presence of varying concentrations of inhibitor (human activin receptor IIB/Fc chimera (R&D Systems, Minneapolis, Minn.) (0-250 nM); protein 1 (100 nM), peptide 1 (250 nM), protein 2 (50 nM); proteins, produced in E. coli, M17, M7, M29, M21, M1-1, WT F13β2 (500 nM)).

B max [%] | Kd [nM] | Binder
74.8 | 39.9 | B1
64.1 | 33.6 | B2
67.3 | 21.8 | B3
63.9 | 25.5 | B4
6.74 | 11.2 | B5
65.8 | 26.2 | B6
60 | 27.8 | B7
61.6 | 24.8 | B8
72.2 | 25.1 | B9
33.3 | 140 | B10
68.4 | 17.4 | B11
18.8 | 41.6 | B12
57.6 | 24.7 | B13
22.3 | 41 | B14
62.7 | 24.1 | B15
98.6 | 28.1 | B16
73.7 | 15.4 | B17

B max [%] | Kd [nM] | Binder
59.4 | 28.5 | B18
69.2 | 30.8 | B19
24.1 | 14.1 | B20
82.4 | 13.6 | B21
1.19 | 7.09 | B22
83.1 | 9.99 | B23
49 | 28.4 | B24
34.1 | 25.6 | B25
47.3 | 29.7 | B26
72 | 22.8 | B27
68 | 28.6 | B28
7.66 | 32.9 | B29
7.77 | 34.5 | B30
1.81 | 22 | B31
41.2 | 65 | B32
46.4 | 57.6 | B33
